Assay results from US20220017636A1 (Amgen, published 2022).

Legend:
Experiment in all cases: flow cytometry, peptide-loaded T2 cells;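 note: binding of single-chain Fv antibody constructs, raised in XenoMouse, to peptide-pulsed T2 cells measured by flow cytometry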
[1] = molecular target: T1, MYOF peptide complexed with HLA-A*02:01 on T2 cells (human)
T1 construct: whole, on cells
Description: (§1) Binding of pMAGE-HLA scFv constructs, generated from the XenoMouse, on peptide loaded T2 cells was evaluated by flow cytometry.

[2] = molecular target: T2, MAGEB2 peptide … (SEQ ID NO: 1) complexed with HLA-A*02:01 on the cell surface (human)
T2 construct: whole, on cells; also called pMAGE-HLA; MAGEB2 pMHC
Description: as §1

[3] = molecular target: T3, COX14 peptide complexed with HLA-A*02:01 on T2 cells (human)
T3 construct: whole, on cells
Description: as §1

[4] = molecular target: T4, SLK peptide complexed with HLA-A*02:01 on T2 cells (human)
T4 construct: whole, on cells
Description: as §1

[5] = molecular target: T5, CNDP2 peptide complexed with HLA-A*02:01 on T2 cells (human)
T5 construct: whole, on cells; also called CNPD2
Description: as §1

[6] = molecular target: T6, DPYSL4 peptide complexed with HLA-A*02:01 on T2 cells (human)
T6 construct: whole, on cells
Description: as §1

[7] = molecular target: T7, ADF peptide complexed with HLA-A*02:01 on T2 cells (human)
T7 construct: whole, on cells
Description: as §1

[8] = molecular target: T8, KEA peptide complexed with HLA-A*02:01 on T2 cells (human)
T8 construct: whole, on cells
Description: as §1

[9] = molecular target: T9, MB peptide complexed with HLA-A*02:01 on T2 cells (human)
T9 construct: whole, on cells
Description: as §1

[10] = molecular target: T10, STXBP5 peptide complexed with HLA-A*02:01 on T2 cells (human)
T10 construct: whole, on cells
Description: as §1

Row | Binder | Signal/background [1] | Signal/background [2] | Signal/background [3] | Signal/background [4] | Signal/background [5] | Signal/background [6] | Signal/background [7] | Signal/background [8] | Signal/background [9] | Signal/background [10]
1 | 18179-E1 (scFv, scFv in bacterial lysate, detected with anti-Flag M2) scFv: EVQLLESGGGLVQPGGSLRLSCAASGFTFSNAWMSWVRQAPGKGLEWVGRIKGNTYGGTTDYAAPVKGRFTISRDDSKNTLYLQMNSLKTEDTAVYYCTTPSYSGSYYNYFSVMDVWGQGTTVTVSSGGGGSGGGGSGGGGSELVMTQSPSSLSASVGDRVTITCRTSQSISSYLNWYQQKPGRAPKLLIFAASSLQGGVPSRFSGSGSGTDFTLTISSLQPEDFATYYCQQTYSMPFTFGPGTKVDIK | 1 | 419 | 0.9 | 1.1 | 1 | 1 | 0.9 | 1 | 1 | 1
2 | 18179-H7 (scFv, scFv in bacterial lysate, detected with anti-Flag M2) scFv: EVQLLESGGGLVQPGGSLRLSCAASGFTFSNAWMSWVRQAPGKGLEWVGRIKSKTYGGTTDYAAPVKGRFTISRDDSKNTLYLQMNSLKTEDTAVYYCTTPSYSGSYYNYFSVMDVWGQGTTVTVSSGGGGSGGGGSGGGGSELQMTQSPSSLSASVGDRVTITCRTSQSISSYLNWFQQKPGKAPKLLIFAASSLQSGVPSRFSGSGSGTDFTLTISSLQPEDFATYYCQQSYSSPFTFGPGTKVEIK | 1.1 | 399 | 1 | 0.9 | 1 | 1 | 1.1 | 1 | 1 | 1
3 | 18181-A6 (scFv, scFv in bacterial lysate, detected with anti-Flag M2) scFv: EVQLLESGGGLVQPGGSLRLSCAASGFTFSNAWMSWVRQAPGKGLEWVGRIKGNTYGGTTDYAAPVKGRFTISRDDSKNTLYLQMNSLKTEDTAVYYCTTPSYSGSYYNYFSVMDVWGQGTTVTVSSGGGGSGGGGSGGGGSELVMTQSPSSLSASVGDRVTITCRASQSISSYLNWYQQKPGRAPKLLIFAASSLQGGVPSRFSGSGSGTDFTLTISSLQPEDFATYYCQQTYSMPFTFGPGTKLEIK | 1.1 | 430 | 0.9 | 1.1 | 1 | 1 | 1 | 0.9 | 1 | 1
4 | 18181-F1 (scFv, scFv in bacterial lysate, detected with anti-Flag M2) scFv: EVQLLESGGGLVKPGGSLRLSCAASGFTFSNAWMSWVRQAPGKGLEWVGRIKGNTYGGTTDYAAPVKGRFTISRDDSKNTLFLQMNSLKTEDTAVYYCTTPSYSGSYYNYFSVMDVWGQGTTVTVSSGGGGSGGGGSGGGGSELVMTQSPSSLSASVGDRVTITCRTSQSISSYLNWYQQKPGRAPKLLIFAASSLQGGVPSRFSGSGSGTDFTLTISSLQPEDFATYYCQQTYSSPFTFGPGTKLEIK | 1.1 | 443 | 1.1 | 1.1 | 1.1 | 1.1 | 1.1 | 0.9 | 1 | 1
5 | 18181-F3 (scFv, scFv in bacterial lysate, detected with anti-Flag M2) scFv: EVQLLESGGGLVQPGGSLRLSCAASGFTFSNAWMSWVRQAPGKGLEWVGRIKGNTYGGTTDYAAPVKGRFTISRDDSKNTLFLQMNSLKTEDTAVYYCTTPSYSGSYYNYFSVMDVWGQGTTVTVSSGGGGSGGGGSGGGGSELVMTQSPSSLSASVGDRVTITCRTSQSISSYLNWYQQKPGRAPKLLIFAASSLQGGVPSRFSGSGSGTDFTLTISSLQPEDFATYYCQQSYSSPFTFGPGTKVEIK | 1.1 | 232 | 0.9 | 1 | 1.1 | 1.1 | 1 | 1 | 0.9 | 1.2
6 | 18181-G8 (scFv, scFv in bacterial lysate, detected with anti-Flag M2) scFv: EVQLLESGGGLVQPGGSLRLSCAASGFTFSNAWMSWVRQAPGKGLEWVGRIKGNTYGGTTDYAAPVKGRFTISRDDSKNTLFLQMNSLKTEDTAVYYCTTPSNSGSYYNYFSVMDVWGQGTTVTVSSGGGGSGGGGSGGGGSELVMTQSPSSLSASVGDRVTITCRTSQSISSYLNWYQQKPGKAPKLLIYAASSLQSGVPSRFSGSGSGTDFTLTISSLQPEDFATYYCQQTYSMPFTFGGGTKVEIK | 1 | 489 | 1 | 1 | 1 | 1.1 | 1 | 0.9 | 0.9 | 1
7 | 18093-B11 (scFv, scFv in bacterial lysate, detected with anti-Flag M2) scFv: EVQLLESGGGLVKPGGSLRLSCAASGFTFSDYYMSWIRQAPGKGLEWVSYISKSGSTIYYADSVKGRFTISRDNAKNSLYLQMNSLRAEDTAVYYCATYNYGHFDYWGQGTLVTVSSGGGGSGGGGSGGGGSELVLTQPPSVSVAPGQTARITCGGNNIGSKSVHWYQQKPGQAPVLVVYDDSDRPSGIPERFSGSNSGNTATLTISRVEAGDEADYYCQVWDSSSDHHVVFGGGTKLTVL | 1.2 | 219 | 1.2 | 1.1 | 1 | 1 | 1.1 | 1.1 | 1.2 | 1.1
8 | 18181-B8 (scFv, scFv in bacterial lysate, detected with anti-Flag M2) scFv: EVQLLESGPGLVKPSQTLSLTCTVSGGSISSGGYYWSWIRQHPGKGLEWIGYISHSGSTYYNPSLKSRVTISVDTSKNQFSLNLTSVTAADTAVYYCAREKMWFGVLNYYYGMDVWGQGTTVTVSSGGGGSGGGGSGGGGSELVMTQTPLSLPVTPGEPASISCRSSQSLLHRNGYNYLDWYLQKPGQSPQLLIYLGSNRASGVPDRFIGSGSGTDFTLEISRVEAEDVGVYYCMQALQTPSFGQGTKVEIK | 1 | 179 | 0.9 | 1 | 1 | 1 | 1 | 0.9 | 0.9 | 0.9
9 | 18181-G10 (scFv, scFv in bacterial lysate, detected with anti-Flag M2) scFv: EVQLLESGPGLVKPSQTLSLTCTVSGDSISSNPYYWSWIRQLPGKGLEWIGYISYSGSTFYNPSLKSRVTISVDTSKNQFSLNLTSVTAADTAVYYCARDRLWFGVLNYYYGMDVWGLGTTVTVSSGGGGSGGGGSGGGGSELVMTQSPLSLPVTPGEPASISCRSSQSLLHSTGYNYVDWYLQKPGQSPQLLIYLGSNRASGVPDRFSGSGSGTDFTLKISRVEAEDVGFYYCMQALQTPRTFGQGTKVEIK | 1 | 121 | 1 | 1.1 | 1.1 | 1 | 1 | 1 | 1 | 1
10 | 18181-C9 (scFv, scFv in bacterial lysate, detected with anti-Flag M2) scFv: EVQLLESGPGLVKPSQTLSLTCTVSGDSISSNPYYWSWIRQLPGKGLEWIGYISYSGSTFYNPSLKSRVTISVDTSKNQFSLNLTSVTAADTAVYYCARDRLWFGVLNYYYGMDVWGLGTTVTVSSGGGGSGGGGSGGGGSELVLTQSPLSLPVTPGEPASISCRSSQSLLHRNGYNYLDWYLQKPGQSPQLLIYLGSNRASGVPDRFSGSGSGTDFTLKISRVEAEDVGVYYCMQGLQTPFTFGPGTKVEIK | 1.1 | 140 | 0.9 | 1 | 1 | 0.9 | 1 | 0.9 | 1 | 1.1
11 | 18181-E2 (scFv, scFv in bacterial lysate, detected with anti-Flag M2) scFv: EVQLLESGPGLVKPSQTLSLTCTVSGDSISSNPYYWSWIRQHPGKGLEWIGYISHSGSTYYNPSLKSRVTISVDTSKNQFSLNLTSVTAADTAVYYCARDRLWFGVLNYYYGMDVWGLGTTVTVSSGGGGSGGGGSGGGGSELVMTQSPLSLPVTPGEPASISCRSSQSLLHSSGYNYLDWYLQKPGQSPQLLIYLGSNRASGVPDRFSGSGSGTDFTLKISKVEAEDVGVYYCMQALQTPRTFGQGTKVDIK | 1.1 | 103 | 1.1 | 1.1 | 1 | 1 | 1.1 | 1 | 1 | 1.1
12 | 18089-B2 (scFv, scFv in bacterial lysate, detected with anti-Flag M2) scFv: EVQLLESGGGLVQPGGSLRLSCAASGFTFSSYAMSWVRQAPGRGLEWVSTISISGGSTNYADSVKGRFTISRDNSKNTLYLQMNSLRAEDTAVYYCAKDGGSGWFPKLLHYGLDVWGQGTTVTVSSGGGGSGGGGSGGGGSELQMTQSPSSLSASVGDRVTITCQASQDISNYLNWYQQKPGKAPKLLIYAASSLQSGVPSRFSGSGSGTDFTLTISSLQPEDFATYYCQQSYSIPLTFGGGTKVEIK | 1.1 | 318 | 0.9 | 1.1 | 1 | 1 | 1 | 1 | 1.1 | 1
